For data set [1], the target named is T1, MBP-Brh2 (Ustilago maydis, UniProt Q8NJ74 1-1075).
T1 sequence: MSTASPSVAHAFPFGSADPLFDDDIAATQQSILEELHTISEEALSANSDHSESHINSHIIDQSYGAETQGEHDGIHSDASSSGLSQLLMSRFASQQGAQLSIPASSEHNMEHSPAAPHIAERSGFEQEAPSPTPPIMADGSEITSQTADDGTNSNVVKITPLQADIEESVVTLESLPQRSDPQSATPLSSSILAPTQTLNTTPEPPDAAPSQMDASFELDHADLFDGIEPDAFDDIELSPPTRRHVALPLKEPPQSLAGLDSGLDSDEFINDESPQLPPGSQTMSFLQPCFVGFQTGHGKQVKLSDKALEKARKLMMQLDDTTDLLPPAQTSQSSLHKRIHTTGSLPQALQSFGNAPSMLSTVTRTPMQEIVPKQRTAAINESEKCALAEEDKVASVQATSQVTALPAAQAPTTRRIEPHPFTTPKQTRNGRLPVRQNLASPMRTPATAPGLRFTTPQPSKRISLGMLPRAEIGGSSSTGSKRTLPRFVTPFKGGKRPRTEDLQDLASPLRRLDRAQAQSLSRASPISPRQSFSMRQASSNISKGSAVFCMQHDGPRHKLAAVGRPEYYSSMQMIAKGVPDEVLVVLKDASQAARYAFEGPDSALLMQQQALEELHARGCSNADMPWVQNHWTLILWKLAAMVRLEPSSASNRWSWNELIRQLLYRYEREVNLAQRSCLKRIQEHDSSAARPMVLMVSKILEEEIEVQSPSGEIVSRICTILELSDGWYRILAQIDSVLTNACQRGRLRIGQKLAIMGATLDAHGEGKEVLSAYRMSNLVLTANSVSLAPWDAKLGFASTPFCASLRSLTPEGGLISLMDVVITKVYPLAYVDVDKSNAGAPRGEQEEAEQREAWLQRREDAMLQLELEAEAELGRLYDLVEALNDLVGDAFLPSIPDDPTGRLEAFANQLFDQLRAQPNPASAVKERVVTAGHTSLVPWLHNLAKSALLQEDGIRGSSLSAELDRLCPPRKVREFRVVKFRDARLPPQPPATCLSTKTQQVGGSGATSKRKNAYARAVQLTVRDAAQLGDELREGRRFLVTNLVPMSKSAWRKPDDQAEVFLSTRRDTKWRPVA
As to the kind of experiment: pull-down.

Data set [2] concerns the target T2, Brh2 apoprotein (stripped of Dss1) (Ustilago maydis, UniProt Q8NJ74 1-1075).
T2 sequence: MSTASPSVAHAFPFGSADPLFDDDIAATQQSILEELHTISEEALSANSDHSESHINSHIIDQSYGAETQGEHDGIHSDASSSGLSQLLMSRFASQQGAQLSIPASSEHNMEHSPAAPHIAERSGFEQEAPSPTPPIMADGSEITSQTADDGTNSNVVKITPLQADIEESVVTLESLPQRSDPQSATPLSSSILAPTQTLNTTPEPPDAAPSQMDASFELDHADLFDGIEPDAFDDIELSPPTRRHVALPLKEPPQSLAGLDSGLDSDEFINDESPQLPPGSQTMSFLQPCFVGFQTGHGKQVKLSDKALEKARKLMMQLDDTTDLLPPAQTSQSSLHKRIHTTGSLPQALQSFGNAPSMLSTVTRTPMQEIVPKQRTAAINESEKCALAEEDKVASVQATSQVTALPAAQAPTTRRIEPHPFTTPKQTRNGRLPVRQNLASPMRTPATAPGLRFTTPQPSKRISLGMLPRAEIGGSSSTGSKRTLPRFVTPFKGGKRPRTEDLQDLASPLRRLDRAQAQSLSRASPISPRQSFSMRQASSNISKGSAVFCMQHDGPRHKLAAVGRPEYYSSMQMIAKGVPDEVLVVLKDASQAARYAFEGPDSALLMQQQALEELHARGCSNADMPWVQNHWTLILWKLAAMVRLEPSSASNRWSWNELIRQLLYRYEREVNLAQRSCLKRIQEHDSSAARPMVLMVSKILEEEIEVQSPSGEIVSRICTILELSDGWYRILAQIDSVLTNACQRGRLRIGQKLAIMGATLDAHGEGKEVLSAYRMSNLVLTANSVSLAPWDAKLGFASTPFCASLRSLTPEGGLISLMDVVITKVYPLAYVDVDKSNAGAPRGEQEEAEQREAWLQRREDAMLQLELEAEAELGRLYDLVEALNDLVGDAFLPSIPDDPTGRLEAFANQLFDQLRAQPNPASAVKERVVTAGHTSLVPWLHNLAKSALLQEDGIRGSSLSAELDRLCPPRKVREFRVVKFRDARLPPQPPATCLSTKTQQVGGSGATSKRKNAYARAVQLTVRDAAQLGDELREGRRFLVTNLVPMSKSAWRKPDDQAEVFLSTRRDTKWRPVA
As to the kind of experiment: EMSA.

Another data set has as its target T3, MBP-Brh2NT-His (Ustilago maydis, UniProt Q8NJ74 1-551).
T3 sequence: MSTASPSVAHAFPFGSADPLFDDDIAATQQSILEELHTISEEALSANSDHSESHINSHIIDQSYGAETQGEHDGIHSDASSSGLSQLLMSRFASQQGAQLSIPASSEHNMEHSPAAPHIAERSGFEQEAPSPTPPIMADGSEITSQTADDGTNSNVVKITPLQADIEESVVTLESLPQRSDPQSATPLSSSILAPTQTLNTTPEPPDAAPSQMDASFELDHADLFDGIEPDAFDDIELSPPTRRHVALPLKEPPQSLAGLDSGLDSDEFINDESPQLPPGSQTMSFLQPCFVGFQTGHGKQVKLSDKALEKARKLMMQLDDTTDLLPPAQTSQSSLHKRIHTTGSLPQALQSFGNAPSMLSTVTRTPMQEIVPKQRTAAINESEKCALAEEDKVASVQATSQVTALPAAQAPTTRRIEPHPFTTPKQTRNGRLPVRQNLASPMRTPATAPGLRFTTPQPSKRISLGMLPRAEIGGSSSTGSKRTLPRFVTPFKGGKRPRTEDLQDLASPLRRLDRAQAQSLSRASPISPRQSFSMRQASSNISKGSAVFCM
As to the kind of experiment: EMSA. In general terms: In EMSA bound probe runs differently from free probe, usually more slowly.

For data set [3], the target named is T1, MBP-Brh2. Nature of the data set: pull-down. This is another data set of the same source.

The values that follow come from publication PMC2795026.

Read-outs that look alike come from different tables or passages of the source.

B1: ss60mer (ssDNA)
DNA: GCTGCGCAAGGATAGGTCGAATTTTCTCATTTTCCGCCAGCAGTCCACTTCGATTTAATT
Consider B1, for which the binding result (with MBP-Brh2 [1]; in data set [2]; in the data set with MBP-Brh2NT-His) was “binds” in each case.

B2: 3'-biotin ss60mer (ssDNA)
DNA: GCTGCGCAAGGATAGGTCGAATTTTCTCATTTTCCGCCAGCAGTCCACTTCGATTTAATT
B2: the binding result with MBP-Brh2 [3] is given as “binds”.
